Source: paper PMC2929457 (Nature structural & molecular biology, 2010)

T1: His-SUMOSTAR-FANCD2(1-762) (Drosophila melanogaster) (Drosophila melanogaster, UniProt Q8MYL1 1-762)
T1 sequence (looked up): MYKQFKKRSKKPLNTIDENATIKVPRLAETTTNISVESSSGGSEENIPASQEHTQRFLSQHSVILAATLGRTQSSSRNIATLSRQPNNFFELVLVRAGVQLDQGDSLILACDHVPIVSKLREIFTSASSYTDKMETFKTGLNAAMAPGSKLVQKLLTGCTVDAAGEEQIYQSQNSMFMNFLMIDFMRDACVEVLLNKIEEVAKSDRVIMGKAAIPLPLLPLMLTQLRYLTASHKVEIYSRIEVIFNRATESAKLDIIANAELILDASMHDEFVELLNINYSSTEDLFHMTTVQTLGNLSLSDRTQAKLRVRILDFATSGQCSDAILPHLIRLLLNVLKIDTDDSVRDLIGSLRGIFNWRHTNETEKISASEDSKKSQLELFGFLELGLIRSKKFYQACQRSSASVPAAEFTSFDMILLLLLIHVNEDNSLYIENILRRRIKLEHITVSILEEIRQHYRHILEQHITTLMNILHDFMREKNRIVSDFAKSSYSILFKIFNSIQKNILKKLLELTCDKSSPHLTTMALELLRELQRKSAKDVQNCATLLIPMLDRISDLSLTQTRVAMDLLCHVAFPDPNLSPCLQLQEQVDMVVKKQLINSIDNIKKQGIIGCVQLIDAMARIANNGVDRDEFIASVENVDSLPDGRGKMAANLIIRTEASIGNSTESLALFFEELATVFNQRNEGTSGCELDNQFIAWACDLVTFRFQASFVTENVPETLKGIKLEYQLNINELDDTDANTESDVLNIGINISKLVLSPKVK

B1: Drosophila melanogaster FANCL, full length (enzyme, UniProt Q8T913 1-381, looked up)
chain: MESNEDVERLLCQKYPGLAAELQPSGACIIRGVLGSEDTWRRLKLYLPHHPALHGFQLYVQESLEYKLYTSANLKLQDDWLLEDFLDHLPKILPAQKAPTVPKELCREGNIYYDILALYKSNEYCLQVDEACSMIRFSEFTDFEQHYLELKIPSLLLLDHSLPDCVSLGEMLTKSAGNLEEALNLFRKLLEDLRPFYDNFMDIDELCHVLQPSPISSKHKTRLFPLKDRVYLKLTIADPFACIASMSLKIIGPTEEVARLRHVLSDGLSNWDSEMNIHKNLLRMFDLCYFPMPDWSDGPKLDEEDNEELRCNICFAYRLDGGEVPLVSCDNAKCVLKCHAVCLEEWFKTLMDGKTFLEVSFGQCPFCKAKLSTSFAALLND
B2: FANCL DRWD-RING (residues 105-381) (domain or fragment, Drosophila melanogaster, UniProt Q8T913 105-381, looked up)
chain: LCREGNIYYDILALYKSNEYCLQVDEACSMIRFSEFTDFEQHYLELKIPSLLLLDHSLPDCVSLGEMLTKSAGNLEEALNLFRKLLEDLRPFYDNFMDIDELCHVLQPSPISSKHKTRLFPLKDRVYLKLTIADPFACIASMSLKIIGPTEEVARLRHVLSDGLSNWDSEMNIHKNLLRMFDLCYFPMPDWSDGPKLDEEDNEELRCNICFAYRLDGGEVPLVSCDNAKCVLKCHAVCLEEWFKTLMDGKTFLEVSFGQCPFCKAKLSTSFAALLND

Molecular target: T1, His-SUMOSTAR-FANCD2(1-762) (Drosophila …)
Test: pull-down

binding result	Binder
binds	B1
binds	B2
